Results from patent US20220048991A1 (BIOND BIOLOGICS, published 2022).
Changes are numbered by the printed parent chain. Numbers in names are those of the source.

B1: 15G8 (hybridoma-derived, murine) (antibody, V domains shown)
VH: DVQLQGSGPGLVKPSQSLSLTCSVTGYSITSGYYWNWIRQFPGNKLEWMGYISYDGSNNYNPSLKNRISITRDTSKNQFFLKLNSVTSEDTATYYCAHGYSYYYAMDCWGQGTSVTVSS
VL: DIQMTQTTSSLSASLGDRVTISCRTSQDISNYLNWYQQKPDGTVKLLISYTSRLHSGVPSRFSGSGSGTDYSLTISNLEQEDIATYFCQQGNTLPTFGSGTKLEIK
notes: also called 15G8 antibody
B2: 19E3 (hybridoma-derived, murine) (antibody, V domains shown)
VH: QVQLQQSGAELARPGASVKLSCKASGYTFTSYGISWVKQRTGQGLEWVGEIYPGSGNSYYNEKFKGKATLTADKSSSTAYMELRSLTSEDSAVYFCARSNDGYPDYWGQGTTLTVSS
VL: DIQMTQSSSYLSVSLGGRVTITCKASDHINNWLAWYQQKPGNAPRLLISGATSLETGVPSRFSGSGSGKDYTLSITSLQTEDVATYYCQQYWSTPWTFGGGTKLEIK
B3: 17F2 (hybridoma-derived, murine) (antibody, V domains shown)
VH: QVQLQQSDAELVKPGASVKISCKVSGYTFTDHTIHWMKQRPEQGLEWIGYIYPRDGSTKYNEKFKGKATLTADKSSSTAYMQLNSLTSEDSAVYFCARTWDYFDYWGQGTTLTVSS
VL: DIVLTQSPASLAVSLGQRATISCRASESVDSYGNSFMHWYQQKPGQPPKLLIYRASNLESGIPARFSGSGSRTDFTLTINPVEADDVATYYCQQSNEDPYTFGGGTKLEIK
B4: 15G8-23 (humanized 15G8, VH2/Vk3) (antibody, human IgG4 S228P, kappa, V domains shown)
VH: DVQLQGSGPGLVKPSETLSLTCSVTGYSITSGYYWNWIRQFPGKKLEWMGYISYDGSNNYNPSLKNRITISRDTSKNQFSLKLSSVTAADTATYYCAHGYSYYYAMDAWGQGTTVTVSS
VL: DIQMTQSPSSLSASVGDRVTITCRTSQDISNYLNWYQQKPGKAVKLLISYTSRLHSGVPSRFSGSGSGTDYTLTISSLQPEDFATYYCQQGNTLPTFGQGTKLEIKR
notes: Humanized IgG4 (S228P, L235E), kappa
B5: humanized 15G8 VH4/Vk2 (antibody, IgG4, V domains shown)
VH: B4 VH with D1Q, F41P, K45G, I68V
VL: DIQMTQSPSSLSASVGDRVTITCRTSQDISNYLNWYQQKPGKAVKLLISYTSRLHSGVPSRFSGSGSGTDYTLTISSLQPEDFATYFCQQGNTLPTFGQGTKLEIK
notes: Humanized IgG4 (S228P, L235E), kappa; tested as supernatant of transiently transfected HEK EBNA cells
B6: humanized 15G8 VH2/Vk1 (antibody, IgG4, V domains shown)
VH: B4 VH
VL: B5 VL with P8T, P80Q
notes: as for B5
B7: 15G8-53 (humanized 15G8, VH5/Vk3) (antibody, human IgG4 S228P, kappa, V domains shown)
VH: B4 VH with D1Q, S23T, F41P, K45G, M49I, I68V
VL: B4 VL
notes: as for B4
B8: humanized 15G8 VH1/Vk1 (antibody, IgG4, V domains shown)
VH: B4 VH with S84N, T114S
VL: B5 VL with P8T, P80Q
notes: as for B5
B9: humanized 15G8 VH3/Vk3 (antibody, IgG4, V domains shown)
VH: B4 VH with F41P, K45G
VL: B5 VL with F87Y
notes: as for B5
B10: 15G8-34 (humanized 15G8, VH3/Vk4) (antibody, IgG4, V domains shown)
VH: B4 VH with F41P, K45G
VL: B5 VL with V44P
notes: as for B4
B11: humanized 15G8 VH1/Vk4 (antibody, IgG4, V domains shown)
VH: B4 VH with S84N, T114S
VL: B5 VL with V44P
notes: as for B5
B12: 15G8-54 (humanized 15G8, VH5/Vk4) (antibody, IgG4, V domains shown)
VH: B4 VH with D1Q, S23T, F41P, K45G, M49I, I68V
VL: B5 VL with V44P
notes: as for B4
B13: 15G8-32 (humanized 15G8, VH3/Vk2) (antibody, human IgG4 S228P, kappa, V domains shown)
VH: B4 VH with F41P, K45G
VL: B4 VL with Y87F
notes: as for B4
B14: humanized 15G8 VH5/Vk1 (antibody, IgG4, V domains shown)
VH: B4 VH with D1Q, S23T, F41P, K45G, M49I, I68V
VL: B5 VL with P8T, P80Q
notes: as for B5
B15: humanized 15G8 VH4/Vk3 (antibody, IgG4, V domains shown)
VH: B4 VH with D1Q, F41P, K45G, I68V
VL: B5 VL with F87Y
notes: as for B5
B16: 15G8-44 (humanized 15G8, VH4/Vk4) (antibody, IgG4, V domains shown)
VH: B4 VH with D1Q, F41P, K45G, I68V
VL: B5 VL with V44P
notes: as for B4
B17: humanized 15G8 VH4/Vk1 (antibody, IgG4, V domains shown)
VH: B4 VH with D1Q, F41P, K45G, I68V
VL: B5 VL with P8T, P80Q
notes: as for B5
B18: humanized 15G8 VH2/Vk4 (antibody, IgG4, V domains shown)
VH: B4 VH
VL: B5 VL with V44P
notes: as for B5
B19: humanized 15G8 VH2/Vk2 (antibody, IgG4, V domains shown)
VH: B4 VH
VL: B5 VL
notes: as for B5
B20: humanized 15G8 VH1/Vk2 (antibody, IgG4, V domains shown)
VH: B4 VH with S84N, T114S
VL: B5 VL
notes: as for B5
B21: humanized 15G8 VH5/Vk2 (antibody, IgG4, V domains shown)
VH: B4 VH with D1Q, S23T, F41P, K45G, M49I, I68V
VL: B5 VL
notes: as for B5
B22: humanized 15G8 VH3/Vk1 (antibody, IgG4, V domains shown)
VH: B4 VH with F41P, K45G
VL: B5 VL with P8T, P80Q
notes: as for B5

What follows are binders tested against ILT6 (UniProt Q8N6C8 24-439, limits assumed) (assay: binding ELISA, column hILT6-His).
ILT6, sequence (Q8N6C8 24-439 limits assumed): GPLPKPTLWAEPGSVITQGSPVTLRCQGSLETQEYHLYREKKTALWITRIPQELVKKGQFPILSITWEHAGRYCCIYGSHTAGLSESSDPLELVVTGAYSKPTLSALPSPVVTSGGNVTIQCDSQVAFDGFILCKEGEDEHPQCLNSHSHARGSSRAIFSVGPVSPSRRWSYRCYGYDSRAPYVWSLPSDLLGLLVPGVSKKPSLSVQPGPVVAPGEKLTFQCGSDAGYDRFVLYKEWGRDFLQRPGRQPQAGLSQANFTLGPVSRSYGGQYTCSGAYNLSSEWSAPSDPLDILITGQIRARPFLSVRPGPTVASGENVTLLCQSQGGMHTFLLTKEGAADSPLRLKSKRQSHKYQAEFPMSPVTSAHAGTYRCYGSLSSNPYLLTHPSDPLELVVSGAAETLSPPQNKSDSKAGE

Compared with B1, B2 is higher in “ELISA (OD)” value: 0.07 OD for the first, 0.13 OD for the second.

With B3 the “ELISA (OD)” value was 0.06 OD.

B1: no binding.
B2: no binding.
B3: no binding.

What follows are binders tested against T1, recombinant ILT2 (human) (human, UniProt Q8NHL6 24-461) (assay: SPR (Biacore T200), HEK EBNA supernatants on recombinant ILT2 peptide).
T1 construct: also called recombinant ILT2 peptide; ILT2 protein
T1 sequence (Q8NHL6 24-461 limits assumed): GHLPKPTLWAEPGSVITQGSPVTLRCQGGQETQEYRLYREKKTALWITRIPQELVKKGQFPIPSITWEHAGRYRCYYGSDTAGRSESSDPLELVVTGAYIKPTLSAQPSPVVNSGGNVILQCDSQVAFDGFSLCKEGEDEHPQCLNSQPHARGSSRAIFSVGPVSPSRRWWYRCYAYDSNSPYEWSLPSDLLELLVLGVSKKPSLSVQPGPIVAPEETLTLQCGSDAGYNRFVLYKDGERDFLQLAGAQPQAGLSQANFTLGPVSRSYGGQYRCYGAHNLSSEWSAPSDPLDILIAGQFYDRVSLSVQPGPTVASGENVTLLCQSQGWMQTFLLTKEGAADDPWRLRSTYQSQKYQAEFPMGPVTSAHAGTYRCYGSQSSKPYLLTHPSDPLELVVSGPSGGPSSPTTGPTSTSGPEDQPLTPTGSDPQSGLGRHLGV
Experimental: (§1) During grafting of the 15G8 CDRs, five heavy chains and four kappa light chains were generated. These chains were designated VH1-5 and Vk1-4. By combining each heavy chain with each light chain twenty different resultant antibodies are possible. All twenty possible antibodies were transiently expressed in HEK EBNA cells, and the supernatants were tested for binding to recombinant ILT2 peptide using a Biacore T200. The chimeric 15G8 antibody was used as control.

B4 and B5 are within 1.5-fold of each other in Kd: 8.31 nM for the first, 9.93 nM for the second.

B6 and B7 are within 1.5-fold of each other in Kd: 9.58 nM for the first, 10.6 nM for the second.

B8 and B9 are within 1.5-fold of each other in Kd: 8.77 nM for the first, 9.03 nM for the second.

B10 and B11 are within 1.5-fold of each other in Kd: 12.6 nM for the first, 18.7 nM for the second.

B12 and B13 are within 1.5-fold of each other in Kd: 10.3 nM for the first, 8.19 nM for the second.

B14 and B15 are within 1.5-fold of each other in Kd: 8.55 nM for the first, 9.51 nM for the second.

Going from B16 to B17, the Kd falls from 13.5 nM to 8.66 nM (1.6-fold). The second binds more tightly here.

Going from B18 to B19, the Kd falls from 14.2 nM to 8.79 nM (1.6-fold). The second binds more tightly here.

B20 and B21 are within 1.5-fold of each other in Kd: 8.82 nM for the first, 7.57 nM for the second.

For B22, the Kd was 8.52 nM.

B4 and B5 are within 1.5-fold of each other in koff: 0.0076 s⁻¹ for the first, 0.00685 s⁻¹ for the second.

B6 and B7 are within 1.5-fold of each other in koff: 0.00728 s⁻¹ for the first, 0.0072 s⁻¹ for the second.

First: B8
Second: B9
The koff of the first is 1.5-fold higher: 0.00931 s⁻¹ for the first, 0.00611 s⁻¹ for the second.

B10 and B11 are within 1.5-fold of each other in koff: 0.00832 s⁻¹ for the first, 0.00854 s⁻¹ for the second.

First: B12
Second: B13
The koff of the first is 1.8-fold higher: 0.0117 s⁻¹ for the first, 0.00664 s⁻¹ for the second.

B14 and B15 are within 1.5-fold of each other in koff: 0.00994 s⁻¹ for the first, 0.00843 s⁻¹ for the second.

B16 and B17 are within 1.5-fold of each other in koff: 0.00977 s⁻¹ for the first, 0.00792 s⁻¹ for the second.

B18 and B19 are within 1.5-fold of each other in koff: 0.00789 s⁻¹ for the first, 0.0066 s⁻¹ for the second.

B20 and B21 are within 1.5-fold of each other in koff: 0.00678 s⁻¹ for the first, 0.00954 s⁻¹ for the second.

B22 gave a koff of 0.00681 s⁻¹.

B4 and B5 are within 1.5-fold of each other in kon: 915000 M⁻¹ s⁻¹ for the first, 690000 M⁻¹ s⁻¹ for the second.

B6 and B7 are within 1.5-fold of each other in kon: 760000 M⁻¹ s⁻¹ for the first, 682000 M⁻¹ s⁻¹ for the second.

Compared with B8, B9 is 1.6-fold lower in kon: 1.06e+06 M⁻¹ s⁻¹ for the first, 677000 M⁻¹ s⁻¹ for the second.

B10 and B11 are within 1.5-fold of each other in kon: 661000 M⁻¹ s⁻¹ for the first, 457000 M⁻¹ s⁻¹ for the second.

B12 and B13 are within 1.5-fold of each other in kon: 1.14e+06 M⁻¹ s⁻¹ for the first, 811000 M⁻¹ s⁻¹ for the second.

B14 and B15 are within 1.5-fold of each other in kon: 1.16e+06 M⁻¹ s⁻¹ for the first, 886000 M⁻¹ s⁻¹ for the second.

B16 and B17 are within 1.5-fold of each other in kon: 724000 M⁻¹ s⁻¹ for the first, 915000 M⁻¹ s⁻¹ for the second.

B18 and B19 are within 1.5-fold of each other in kon: 554000 M⁻¹ s⁻¹ for the first, 752000 M⁻¹ s⁻¹ for the second.

Compared with B20, B21 is 1.6-fold higher in kon: 769000 M⁻¹ s⁻¹ for the first, 1.26e+06 M⁻¹ s⁻¹ for the second.

B22 showed a kon of 799000 M⁻¹ s⁻¹.

These binders were tested against T1, recombinant ILT2 (human) (assay: SPR (Biacore T200); KD relative to Control (chimeric 15G8)).
Experimental: as §1

Going from B4 to B5, the “Relative KD” value rises from 0.66 to 0.79.

First: B6
Second: B7
The “Relative KD” value of the first is lower: 0.76 for the first, 0.84 for the second.

Going from B8 to B9, the “Relative KD” value rises from 0.7 to 0.72.

First: B10
Second: B11
The “Relative KD” value of the first is lower: 1 for the first, 1.48 for the second.

Going from B12 to B13, the “Relative KD” value falls from 0.82 to 0.65.

Going from B14 to B15, the “Relative KD” value rises from 0.68 to 0.75.

First: B16
Second: B17
The “Relative KD” value of the first is higher: 1.07 for the first, 0.69 for the second.

First: B18
Second: B19
The “Relative KD” value of the first is higher: 1.13 for the first, 0.7 for the second.

First: B20
Second: B21
The “Relative KD” value of the first is higher: 0.7 for the first, 0.6 for the second.

For B22, the “Relative KD” value was 0.68.

What follows are binders tested against LILRA1 (UniProt O75019 17-461, limits assumed) (assay: binding ELISA, column hLILRA1-His).
LILRA1, sequence (O75019 17-461 limits assumed): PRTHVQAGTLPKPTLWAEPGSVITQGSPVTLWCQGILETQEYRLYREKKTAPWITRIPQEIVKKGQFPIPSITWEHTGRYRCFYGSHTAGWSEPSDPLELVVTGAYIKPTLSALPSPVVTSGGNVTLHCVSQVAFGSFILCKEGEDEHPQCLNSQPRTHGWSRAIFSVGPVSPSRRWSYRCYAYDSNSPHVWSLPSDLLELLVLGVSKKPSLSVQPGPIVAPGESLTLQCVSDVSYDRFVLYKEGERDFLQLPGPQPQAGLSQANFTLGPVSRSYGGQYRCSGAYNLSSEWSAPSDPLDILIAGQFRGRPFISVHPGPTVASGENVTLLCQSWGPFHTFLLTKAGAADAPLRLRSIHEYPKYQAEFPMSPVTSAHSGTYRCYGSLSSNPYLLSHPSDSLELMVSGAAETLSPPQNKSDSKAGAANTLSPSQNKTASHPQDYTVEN

Going from B1 to B2, the “ELISA (OD)” value falls from 0.14 OD to 0.11 OD.

For B3, the “ELISA (OD)” value was 0.08 OD.

B1: no binding.
B2: no binding.
B3: no binding.

Each binder was assayed against T2, PIRB (UniProt P97484 25-642, limits assumed) (assay: binding ELISA, column PIRB).
T2 sequence (looked up): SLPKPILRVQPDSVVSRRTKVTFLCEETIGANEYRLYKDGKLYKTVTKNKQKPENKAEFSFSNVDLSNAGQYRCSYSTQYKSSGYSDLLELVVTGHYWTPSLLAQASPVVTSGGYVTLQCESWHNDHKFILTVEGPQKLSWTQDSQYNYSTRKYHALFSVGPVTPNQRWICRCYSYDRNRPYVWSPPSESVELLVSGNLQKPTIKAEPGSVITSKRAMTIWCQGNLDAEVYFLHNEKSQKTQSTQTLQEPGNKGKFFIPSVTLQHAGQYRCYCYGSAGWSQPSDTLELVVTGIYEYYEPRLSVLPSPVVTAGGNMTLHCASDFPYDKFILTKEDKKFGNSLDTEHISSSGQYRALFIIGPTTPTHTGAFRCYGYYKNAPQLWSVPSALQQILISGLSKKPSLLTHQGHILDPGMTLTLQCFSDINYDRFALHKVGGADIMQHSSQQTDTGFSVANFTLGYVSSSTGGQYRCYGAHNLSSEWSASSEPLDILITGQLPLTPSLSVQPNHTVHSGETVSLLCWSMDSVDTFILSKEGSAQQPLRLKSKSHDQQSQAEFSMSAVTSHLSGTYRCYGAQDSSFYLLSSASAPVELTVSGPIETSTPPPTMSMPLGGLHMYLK

Going from B1 to B2, the “ELISA (OD)” value rises from 0.08 OD to 0.14 OD.

In the case of B3, the “ELISA (OD)” value is reported as 0.06 OD.

B1: no binding.
B2: no binding.
B3: no binding.

Each binder was assayed against T1, recombinant ILT2 (human) (assay: binding ELISA, hILT2-Fc).

Compared with B1, B2 is higher in “ELISA (OD)” value: 1.11 OD for the first, 2.61 OD for the second.

In the case of B3, the “ELISA (OD)” value is reported as 1.89 OD.
